What is called koff is a measure of how fast the partners let go of each other. Broadly, the kon is the second-order rate constant of association. What is called Kd is the concentration at which binding is half-saturated.

These results are taken from US20030170203A1 (Human Genome Sciences, published 2003).

B1: Fc-fusion form of the extracellular domain of OPG (Fc fusion, UniProt O00300 22-194, looked up)
chain: ETFPPKYLHYDEETSHQLLCDKCPPGTYLKQHCTAKWKTVCAPCPDHYYTDSWHTSDECLYCSPVCKELQYVKQECNRTHNRVCECKEGRYLEIEFCLKHRSCPPGFGVVQAGTPERNTVCKRCPDGFFSNETSSKAPCRKHTNCSVFGLLLTQKGNATHDNICSGNSESTQK
notes: extracellular domain; not shown: Fc
B2: Fc-fusion form of the extracellular domain of AITR (Fc fusion, UniProt Q9Y5U5 26-162, looked up)
chain: QRPTGGPGCGPGRLLLGTGTDARCCRVHTTRCCRDYPGEECCSEWDCMCVQPEFHCGDPCCTTCRHHPCPPGQGVQSQGKFSFGFQCIDCASGTFSGGHEGHCKPWTDCTQFGFLTVFPGNKTHNAVCVPGSPPAEP
notes: as for B1
B3: Fc-fusion form of the extracellular domain of RANK (Fc fusion, UniProt Q9Y6Q6 30-212, looked up)
chain: IAPPCTSEKHYEHLGRCCNKCEPGKYMSSKCTTTSDSVCLPCGPDEYLDSWNEEDKCLLHKVCDTGKALVAVVAGNSTTPRRCACTAGYHWSQDCECCRRNTECAPGLGAQHPLQLNKDTVCKPCLAGYFSDAFSSTDKCRPWTNCTFLGKRVEHHGTEKSDAVCSSSLPARKPPNEPHVYLP
notes: as for B1
B4: GST fusion of the cytoplasmic domain of DR3 (amino acid residues 215-393 (SEQ ID NO:4)) (other)
chain: AGMEALTPPPATHLSPLDSAHTLLAPPDSSEKICTVQLVGNSWTPGYPETQEALCPQVTWSWDQLPSRALGPAAAPTLSPESPAGSPAMMLQPGPQLYDVMDAVPARRWKEFVRTLGLREAEIEAVEVEIGRFRDQQYEMLKRWRQQQPAGLGAVYAALERMGLDGCVEDLRSRLQRGP
notes: Made in E. coli BL21 (DE3) pLysS and immobilized on glutathione-agarose beads; The results paragraph calls it GST-DDCR (DDCR is the former name of DR3); also called GST-DR3; GST-DDCR; not shown: glutathione S-transferase from vector pGSTag
B5: Fc-fusion form of the extracellular domain of TNFR1 (Fc fusion, UniProt P19438 30-211, looked up)
chain: LVPHLGDREKRDSVCPQGKYIHPQNNSICCTKCHKGTYLYNDCPGPGQDTDCRECESGSFTASENHLRHCLSCSKCRKEMGQVEISSCTVDRDTVCGCRKNQYRHYWSENLFQCFNCSLCLNGTVHLSCQEKQNTVCTCHAGFFLRENECVSCSNCKKSLECTKLCLPQIENVKGTEDSGTT
notes: extracellular domain; also called TNFR1-Fc; TNFRI.Fc; not shown: Fc
B6: Fc-fusion form of the extracellular domain of DcR2 (Fc fusion, UniProt Q9UBN6 56-211, looked up)
chain: ATIPRQDEVPQQTVAPQQQRRSLKEEECPAGSHRSEYTGACNPCTEGVDYTIASNNLPSCLLCTVCKSGQTNKSSCTTTRDTVCQCEKGSFQDKNSPEMCRTCRTGCPRGMVKVSNCTPRSDIKCKNESAASSTGKTPAAEETVTTILGMLASPYH
notes: as for B1
B7: Fc-fusion form of the extracellular domain of OX40 (Fc fusion, UniProt P43489 29-214, looked up)
chain: LHCVGDTYPSNDRCCHECRPGNGMVSRCSRSQNTVCRPCGPGFYNDVVSSKPCKPCTWCNLRSGSERKQLCTATQDTVCRCRAGTQPLDSYKPGVDCAPCPPGHFSPGDNQACKPWTNCTLAGKHTLQPASNSSDAICEDRDPPATQPQETQGPPARPITVQPTEAWPRTSQGPSTRPVEVPGGRA
notes: as for B1
B8: Fc-fusion form of the extracellular domain of DcR1 (Fc fusion, UniProt O14798 26-221, looked up)
chain: ATTARQEEVPQQTVAPQQQRHSFKGEECPAGSHRSEHTGACNPCTEGVDYTNASNNEPSCFPCTVCKSDQKHKSSCTMTRDTVCQCKEGTFRNENSPEMCRKCSRCPSGEVQVSNCTSWDDIQCVEEFGANATVETPAAEETMNTSPGTPAPAAEETMNTSPGTPAPAAEETMTTSPGTPAPAAEETMTTSPGTPA
notes: as for B1
B9: full length TNF-gamma-beta expressed on the cell surface (ligand, human, UniProt O95150 1-251, looked up)
chain: MAEDLGLSFGETASVEMLPEHGSCRPKARSSSARWALTCCLVLLPFLAGLTTYLLVSQLRAQGEACVQFQALKGQEFAPSHQQVYAPLRADGDKPRAHLTVVRQTPTQHFKNQFPALHWEHELGLAFTKNRMNYTNKFLLIPESGDYFIYSQVTFRGMTSECSEIRQAGRPNKPDSITVVITKVTDSYPEPTQLLMGTKSVCEVGSNWFQPIYLGAMFSLQEGDKLMVNVSDISLVDYTKEDKTFFGAFLL
notes: whole, on cells; also called TNF-gamma-beta expressing cells
B10: extracellular domain of human DR3 (aa 1-199) fused at its C-terminus to the Fc domain of human IgG1 (Fc fusion, not shown: a dimerising Fc or GST)
chain: QGGTRSPRCDCAGDFHKKIGLFCCRGCPAGHYLKAPCTEPCGNSTCLVCPQDTFLAWENHHNSECARCQACDEQASQVALENCSAVADTRCGCKPGWFVECQVSQCVSSSPFYCQPCLDCGALHRHTRLLCSRRDTDCGTCLPGFYEHGDGCVSCPTSTLGSCPERCAAVCGWRQ
notes: also called DR3-Fc; DR3.Fc

The target of assay [1] is B9. Nature of the assay: flow cytometry on HEK293F stable transfectants expressing full length TNF-gamma-beta. As to the method: (§1) TR6 has been previously described as a decoy receptor (Pitti et al., Nature 396:699-703 (1998); Yu et al., J. Biol Chem. 274:13733-6 (1999)) capable of competing with Fas and HveA for binding of FasL and LIGHT, respectively.
(§2) One million cells, in 0.1 ml of FACS buffer (PBS, 0.1% BSA, 0.1% NaN₃), were incubated with 0.1-1 microgram of protein or antibody at RT for 15 min. The cells were washed with 3 ml of FACS buffer, reacted with biotinylated primary antibody, and stained with PE-conjugated secondary antibody at RT for 15 min. Cells were then washed again, resuspended in 0.5 microgram/ml of propidium iodide, and live cells were gated and analyzed on a FACScan using the CellQuest software (BD Biosciences).
A general note: Flow cytometry measures light scatter and fluorescence of single cells or particles in a stream.

Another assay has as its target T1, RIP (UniProt Q13546 1-671, limits assumed).
T1 construct: 35S-labeled by in vitro translation for the GST pull-down; also called myc-RIP
T1 sequence (looked up): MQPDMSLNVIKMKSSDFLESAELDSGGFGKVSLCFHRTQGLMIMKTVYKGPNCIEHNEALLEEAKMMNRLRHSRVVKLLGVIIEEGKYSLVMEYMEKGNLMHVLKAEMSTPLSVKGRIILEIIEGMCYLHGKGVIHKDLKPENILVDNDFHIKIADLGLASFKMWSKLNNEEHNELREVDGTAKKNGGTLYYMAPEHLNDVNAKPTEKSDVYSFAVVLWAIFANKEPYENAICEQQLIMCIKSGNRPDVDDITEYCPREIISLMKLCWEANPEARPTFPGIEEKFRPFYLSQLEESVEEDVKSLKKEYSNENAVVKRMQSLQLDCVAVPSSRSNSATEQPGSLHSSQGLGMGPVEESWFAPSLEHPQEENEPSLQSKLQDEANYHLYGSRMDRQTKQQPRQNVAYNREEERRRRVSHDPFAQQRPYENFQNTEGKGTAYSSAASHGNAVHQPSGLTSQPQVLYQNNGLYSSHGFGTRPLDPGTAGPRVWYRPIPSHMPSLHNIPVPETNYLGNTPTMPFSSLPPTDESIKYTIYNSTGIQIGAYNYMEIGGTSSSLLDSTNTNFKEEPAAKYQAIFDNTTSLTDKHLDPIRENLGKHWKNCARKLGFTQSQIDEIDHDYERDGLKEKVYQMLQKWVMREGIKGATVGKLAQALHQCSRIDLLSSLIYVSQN
Kind of assay: GST pull-down of in vitro translated 35S-labeled protein, SDS-PAGE and autoradiography. As to the method:
(§3) In vitro binding experiments were performed as described previously (A. M. Chinnaiyan et al., Cell 81: 505-12 (1995); M. P. Boldin et al., J Biol Chem 270: 7795-8 (1995); F. C. Kischkel etal., EMBO 14: 5579-5588 (1995)). […] Following translation, equal amounts of total ³⁵S-labeled reticulocyte lysate were diluted into 150 μl GST binding buffer (50 mM Tris, pH 7.6,120 mM NaCl, 1% NP-40) and incubated for 2 hrs. at 4° C. with the various GST fusion proteins complexed to beads, following the beads were pelleted by plus centrifugation, washed three times in GST buffer, boiled in SDS-sample buffer and resolved on a 12.5% SDS-PAGE. Bound proteins were visualized following autoradioraphy at −80° C. […] After the beads were washed, retained proteins were analyzed by SDS-PAGE and autoradiography. The gel was Coomassie stained to monitor equivalency of loading.
(§4) As an initial screen, in vitro translated radiolabeled DAMs were precipitated with various glutathione S-transferase (GST) fusion proteins immobilized on glutathione-Sepharose beads.

In a further assay the target is T2, FADD (UniProt Q13158 1-208).
T2 construct: 35S-labeled by in vitro transcription-translation for the GST pull-down; also called AU1-FADD; FADD/MORT1
T2 sequence (looked up): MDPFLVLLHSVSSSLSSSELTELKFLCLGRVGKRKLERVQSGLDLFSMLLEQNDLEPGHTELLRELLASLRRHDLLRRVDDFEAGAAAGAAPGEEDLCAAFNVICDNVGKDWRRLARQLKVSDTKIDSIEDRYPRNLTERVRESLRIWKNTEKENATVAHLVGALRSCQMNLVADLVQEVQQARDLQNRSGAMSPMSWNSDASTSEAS
The description is as above. As to the method: as §3, §4

The next assay concerns the target T3, non-tagged form of TR6 (UniProt O95407 30-300).
T3 construct: also called TNFR-6 alpha; DcR3
T3 sequence (looked up): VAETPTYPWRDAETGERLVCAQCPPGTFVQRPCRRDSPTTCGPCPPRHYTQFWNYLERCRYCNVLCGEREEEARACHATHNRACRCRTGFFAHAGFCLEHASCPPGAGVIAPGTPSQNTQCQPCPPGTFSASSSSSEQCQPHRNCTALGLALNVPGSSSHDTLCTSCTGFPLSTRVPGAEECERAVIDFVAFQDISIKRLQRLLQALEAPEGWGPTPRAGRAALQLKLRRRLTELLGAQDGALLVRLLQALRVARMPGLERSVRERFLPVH
Nature of the assay: flow cytometry, competition with DR3-Fc for TNF-gamma-beta on HEK293F cells. As to the method: as §1, §2

The target in assay [2] is T4, Fc-fusion form of the extracellular domain of DR6 (UniProt O75509 42-349, limits assumed).
T4 construct: extracellular domain; not shown: Fc
T4 sequence (looked up): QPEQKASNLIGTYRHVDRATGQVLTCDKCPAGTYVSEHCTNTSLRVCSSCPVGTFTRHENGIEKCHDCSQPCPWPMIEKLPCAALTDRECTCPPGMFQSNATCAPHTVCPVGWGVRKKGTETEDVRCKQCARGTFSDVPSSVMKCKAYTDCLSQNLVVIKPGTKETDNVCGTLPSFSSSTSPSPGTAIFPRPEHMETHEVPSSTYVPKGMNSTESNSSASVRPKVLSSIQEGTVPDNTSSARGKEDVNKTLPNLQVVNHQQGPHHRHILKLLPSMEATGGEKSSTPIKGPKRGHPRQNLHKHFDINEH
Nature of the assay: flow cytometry on HEK293F stable transfectants expressing full length TNF-gamma-beta. On the procedure: as §1, §2

Assay [3] addresses T5, recombinant, untagged TNF-gamma-beta protein (aa 72-251) from E. coli (human, UniProt O95150 72-251).
T5 construct: Purified from E. coli
T5 sequence (looked up): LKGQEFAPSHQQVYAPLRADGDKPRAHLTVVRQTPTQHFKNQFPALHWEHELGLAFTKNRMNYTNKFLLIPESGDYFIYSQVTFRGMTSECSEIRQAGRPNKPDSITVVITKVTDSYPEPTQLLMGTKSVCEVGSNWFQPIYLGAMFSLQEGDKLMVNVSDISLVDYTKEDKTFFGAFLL
Nature of the assay: BIAcore 3000 (SPR), DR3-Fc amine-coupled to CM5 chip, TNF-gamma-beta 3-370 nM in flow, 1:1 binding model; DR3-Fc on the chip. As to the method:
(§5) TNFR-Fc were covalently immobilized to the BIAcore sensor chip (CM5 chip) via amine groups using N-ethyl-N′-(dimethylaminopropyl) carbodiimide/N-hydroxysuccinimide chemistry. […] The amount of bound protein was determined during washing of the flow cell with HBS buffer (10 mM HEPES, pH 7.4, 150 mM NaCl, 3.4 mM EDTA, 0.005% Surfactant P20). The flow cell surface was regenerated by displacing bound protein by washing with 20 microliters of 10 mM glycine-HCl, pH 2.3. For kinetic analysis, the on and off rates were determined using the kinetic evaluation program in BIAevaluation 3 software using a 1:1 binding model and the global analysis method.

For assay [4], the target named is T5, recombinant, untagged TNF-gamma-beta …. Nature of the assay: BIAcore 3000 (SPR), DR3-Fc amine-coupled to CM5 chip, three batches of TNF-gamma-beta, 1:1 binding model; DR3-Fc; average of three batches of TNF-gamma-beta. On the procedure:
as §5
A general note: In SPR one partner is held on a chip, and binding of the other changes the refractive index at the surface.

In the case of B1, the binding result in assay [1] was “no binding”. Regarding B2, the binding result in assay [1] is “no binding”.

Take B3: the binding result in assay [1] is “no binding”.

For the molecule B4, the binding result with RIP and with FADD was “no binding” in each case. As for B5, the binding result in assay [1] was “no binding”.

Consider B6, for which the binding result in assay [1] was “no binding”. Take B7: the binding result in assay [1] is on record as “no binding”. Turning to B8, the binding result in assay [1] is on record as “no binding”. For B9, the binding result in the assay with non-tagged form of TR6 is “binds”; in assay [2] it was “no binding”.

For B10, in assay [3], the koff stood at 0.00413 s⁻¹ and the kon came out at 639000 M⁻¹ s⁻¹. Besides, the Kd in assay [4] was 6.45 nM.
